Results from paper PMC8509414, “A Novel GUCA1A Variant Associated with Cone Dystrophy Alters cGMP Signaling in Photoreceptors by Strongly Interacting with and Hyperactivating Retinal Guanylate Cyclase” (International Journal of Molecular Sciences, 2021).

Columns and labels:
[1] = biological target: T1, human recombinant ROS-GC1 (retinal guanylate cyclase 1) (human, UniProt Q02846 52-1103); assay: cell-based or functional assay
T1 sequence (looked up): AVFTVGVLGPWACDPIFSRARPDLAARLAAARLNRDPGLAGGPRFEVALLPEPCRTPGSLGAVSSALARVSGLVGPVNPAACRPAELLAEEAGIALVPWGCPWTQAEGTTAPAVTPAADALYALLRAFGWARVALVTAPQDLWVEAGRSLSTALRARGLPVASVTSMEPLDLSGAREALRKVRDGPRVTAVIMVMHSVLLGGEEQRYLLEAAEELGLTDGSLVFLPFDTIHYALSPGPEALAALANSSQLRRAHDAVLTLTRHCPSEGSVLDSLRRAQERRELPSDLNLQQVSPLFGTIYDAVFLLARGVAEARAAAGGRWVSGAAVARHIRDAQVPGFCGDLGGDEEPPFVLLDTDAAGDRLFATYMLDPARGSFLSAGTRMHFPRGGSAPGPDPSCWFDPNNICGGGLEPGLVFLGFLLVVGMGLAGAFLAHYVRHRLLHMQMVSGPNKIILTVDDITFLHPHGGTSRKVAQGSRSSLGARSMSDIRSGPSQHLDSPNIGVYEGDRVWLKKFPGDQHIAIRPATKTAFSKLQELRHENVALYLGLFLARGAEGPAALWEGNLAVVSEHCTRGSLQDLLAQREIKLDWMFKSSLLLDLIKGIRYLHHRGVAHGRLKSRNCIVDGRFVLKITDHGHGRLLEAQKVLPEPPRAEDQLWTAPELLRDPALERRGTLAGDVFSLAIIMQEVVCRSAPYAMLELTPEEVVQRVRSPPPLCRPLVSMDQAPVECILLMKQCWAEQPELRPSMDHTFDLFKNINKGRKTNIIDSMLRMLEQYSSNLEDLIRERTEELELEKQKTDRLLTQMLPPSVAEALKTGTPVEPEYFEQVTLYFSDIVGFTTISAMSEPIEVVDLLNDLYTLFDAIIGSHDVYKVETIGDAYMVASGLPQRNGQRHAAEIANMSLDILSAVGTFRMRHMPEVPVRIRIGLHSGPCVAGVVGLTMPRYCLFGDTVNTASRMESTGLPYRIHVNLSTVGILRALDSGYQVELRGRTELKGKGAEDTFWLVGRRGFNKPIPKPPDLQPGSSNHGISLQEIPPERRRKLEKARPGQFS

[2] = biological target: the molecule itself; assay: SEC; analytical gel filtration, Superose 12 10/300, 20 mM Tris-HCl pH 7.5, 150 mM KCl, 1 mM DTT, 500 µM EGTA + 1 mM Mg2+ or 1 mM Mg2+ + 1 mM Ca2+, room temperature; protein 20 µM (methods) or ~45 µM; apparent MW from a calibration curve

B1: N104H-GCAP1 (guanylate cyclase-activating protein 1, variant p.Asn104His, in the E6S background) (natural protein, human, UniProt P43080 1-201, looked up)
chain: MGNVMSGKSVEELSSTECHQWYKKFMTECPSGQLTLYEFRQFFGLKNLSPSASQYVEQMFETFDFNKDGYIDFMEYVAALSLVLKGKVEQKLRWYFKLYDVDGHGCIDRDELLTIIQAIRAINPCSDTTMTAEEFTDTVFSKIDVNGDGELSLEEFIEGVQKDQMLLDTLTRSLDLTRIVRRLQNGEQDEEGADEAAEAAG
modifications: N-terminal myristoylation (by co-expressed S. cerevisiae N-myristoyl transferase, yNMT)
notes: cDNA of GCAP1-E6S in pET-11a (NdeI/NheI); c.310A>C p.(Asn104His) introduced by site-directed mutagenesis; N104H is a patient variant; E6S was put in by the authors to give the consensus for myristoylation by yNMT; No tag is mentioned; Myristoylation on Gly2 implies loss of the initiator Met (surmise); also called N104H-GCAP1 variant; p.N104H; source: E. coli BL21 co-transformed with pBB131-yNMT
- GC activity (cGMP synthesis, HPLC) of HEK293 membranes with human GC as a function of N104H-GCAP1 concentration (0-10 µM) at <19 nM free Ca2+; EC50 = [N104H] at which GC activity is half-maximal [1]: 1600 nM
- stoichiometry N [2]: 2
